Residue numbers refer to the chain shown, from its start. Values belong to the binder of their own block, whether it stands above or below them.
What was measured:
human TPBG-hFc [1] = molecular target: T1, human TPBG-hFc (human, UniProt Q13641 32-355); experiment: ELISA, coated human TPBG-hFc 1.0 ug/mL; antibody 0.2 nM
T1 construct: also called immunogen A; hFc tagged TPBG protein; not shown: The human IgG Fc fragment of the pCpC vector (Invitrogen V044-50) and any linker to it
T1 sequence: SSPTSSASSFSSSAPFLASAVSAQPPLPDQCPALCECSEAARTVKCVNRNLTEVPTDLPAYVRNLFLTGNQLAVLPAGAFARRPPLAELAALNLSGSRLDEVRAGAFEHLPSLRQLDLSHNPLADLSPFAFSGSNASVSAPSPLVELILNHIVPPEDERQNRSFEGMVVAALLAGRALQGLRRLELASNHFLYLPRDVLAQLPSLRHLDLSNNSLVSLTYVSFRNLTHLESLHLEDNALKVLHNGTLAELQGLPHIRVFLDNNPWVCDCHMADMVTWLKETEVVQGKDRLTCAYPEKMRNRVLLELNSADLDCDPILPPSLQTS
Description: (§1) The purified immunogen A (as for its method of preparation please refer to step 1 in Example 1) diluting with PBS to a final concentration of 1.0 μg/mL was aliquoted into a 96-well ELISA plate at 100 μL per well, and sealed with a parafilm and incubated at 4° C. overnight. The plate was washed twice with plate washing buffer (PBS containing 0.01% (v/v) Tween 20), and blocked with blocking buffer (PBS containing 0.01% (v/v) Tween 20 and 1% (w/w) BSA) at room temperature for 2 h. The blocking buffer was discarded, and 100 μL per well of the purified antibody obtained from Embodiment 2 was added. After incubating at 37° C. for 2 h, the plate was washed for three times with plate washing buffer (PBS containing 0.01% (v/v) Tween 20). HRP (horseradish peroxidase)-labeled secondary antibody (purchased from Sigma) was added and incubated at 37° C. for 2 h, and the plate was washed for three times using plate washing buffer (PBS containing 0.01% (v/v) Tween 20). 100 μL of TMB substrate was aliquoted into each well, incubated at room temperature for 30 min, and 100 μL of stop buffer (1.0N HCl) per well was subsequently added. A₄₅₀ₙₘ values were read using the ELISA plate reader (SpectraMax 384plus purchased from Molecular Device), and the results were shown in FIG. 6 and table 6. […] In Table 6 the IgG control herein is a mice IgG control, the data in the Table are OD₄₅₀ₘₙ values, and Blank means the OD₄₅₀ₘₙ value when there is only PBS buffer in the plate.

[2] = molecular target: T2, biotinylated recombinant TPBG protein (Homo sapiens (Human), UniProt Q13641 32-355, Biotinylated; the number and positions of the biotin labels are not stated and the letters do not carry them.); experiment: competitive ELISA; row antibody 5 ug/mL; competitor: coated 12B12C7C3
T2 sequence: T1 sequence
Description: (§2) The purified antibodies to be tested were diluted to 1 μg/mL using PBS, and coated with high-adsorption of 96-well microplates at […]. After overnight coating at 4[…], 250 μL of blocking buffer (PBS containing 0.01% (v/v) Tween20 and 1% (w/w) BSA) was added to block coating at room temperature for 1 h, and 0.05 μg/mL of biotinylated recombinant TPBG protein was added to each well. Meanwhile, 5 μg/mL final concentration of competitive antibodies, i.e. the purified antibodies obtained from Embodiment 2 with the clone number of 12B12C7C3, 5G4H10G5, 37H9C5G2, 39A11G5F2, 52C9E9F6, 28D4E6A9, 36A10D8B12, 99E12C7H1, 103E2E9C2 and 106D5G3D10 were added and incubated at 25-37° C. for 1-2 h. The plates were washed three times with plate-washing buffer (PBS containing 0.01% (v/v) Tween20) and HRP (horseradish peroxidase)-labeled streptavidin (purchased from Sigma) was added. After incubating at 37° C. for 0.5 h, the plates were washed three times with plate-washing buffer (PBS containing 0.01% (v/v) Tween20), and 100 μL of TMB substrate was added to each well and the plates were further incubated at room temperature for 30 min prior to adding 100 μL of stop buffer (1.0N HCl) to each well. A₄₅₀ₙₘ values were read using an ELISA microplate reader (SpectraMax 384plus purchased from Molecular Device) and results were shown in FIG. 6. The higher the values of the competition rate, the closer the antigen surface of the two antibodies are.

[3] = molecular target: T2, biotinylated recombinant TPBG protein; experiment: competitive ELISA; row antibody 5 ug/mL; competitor: coated 52C9E9F6
Description: as §2

[4] = molecular target: T2, biotinylated recombinant TPBG protein; experiment: competitive ELISA; row antibody 5 ug/mL; competitor: coated 37H9C5G2
Description: as §2

human TPBG-hFc [5] = molecular target: T1, human TPBG-hFc; experiment: ELISA, coated human TPBG-hFc 1.0 ug/mL; antibody 0.002 nM
Description: as §1

- OD450nm (human TPBG-hFc [1]): 1.89 OD450nm
- competition rate [2]: 0%
- competition rate [3]: 0%
- competition rate [4]: 23%
- OD450nm (human TPBG-hFc [5]): 0.14 OD450nm
B1: 103E2E9C2 (antibody, V domains shown)
VH: EVQLQQSGPVLVKPGASVKMSCEASGYSFIDYYMSWVKQSRGRSLEWIGVFNPYSGEIIYNQKFKGKATLTVDKSSSTAYMELSSLTSEDSGVYSCARLRISYYAIDYWGQGTSVAVSS
VL: ENVLTQSPAIMSASPGEKVTMTCRATSSVSSGHFHWYQQKSGASPKVWIYSTSNLASGVPARFSGSGSGTSFSLTISSVEAEDVATYFCQQYSGYPLTFGGGTKLEIK
notes: Mouse hybridoma antibody purified from culture supernatant; also called TPBG antibody; lead antibody

- OD450nm (human TPBG-hFc [1]): 1.39 OD450nm
- competition rate [2]: 27%
- competition rate [3]: 97%
- competition rate [4]: 4%
- OD450nm (human TPBG-hFc [5]): 0.12 OD450nm
B7: 52C9E9F6 (antibody, V domains shown)
VH: QVQLQQSGAELMKPGASVKLSCKATGYTFTGYWIEWIKQRPGHGLEWIGEILPGRGSTDYNEKFKGKATFTADTSSNTAYMQLSSLTTEDSAIYYCTRGRLDFTYWGQGTLVTVSA
VL: DIQMTQTTSSLSASLGDRVTISCSASQGIRNYLNWYQQKPDGTVKLLIYYTSSLHSGVPSRFSGSGSGTDYSLTISNLEPEDIATYYCQQYSKVPWTFGGGTKLEIK
notes: as for B1

- OD450nm (human TPBG-hFc [1]): 2.15 OD450nm
- competition rate [2]: 21%
- competition rate [3]: 23%
- competition rate [4]: 96%
- OD450nm (human TPBG-hFc [5]): 0.18 OD450nm
B8: 36A10D8B12 (antibody, V domains shown)
VH: DVQLQESGPGMVKPSQSLSLTCTVTGYSITSGYDWHWIRHFPGNKLEWMGYISYSGNTNYNPSLKSRISITHNTSKNHFFLRLNSVTTEDTATYYCARGYGNWDAMDYWGQGTSVTVSS
VL: DIVMTQSQKFMSTSVGDRVSVTCKASQIVDTNVAWYQQKPGQSPKALISSASYRYSGVPDRFTGSGSGTDFTLTISNVQSEDLAEYFCQQYNSYPLTFGAGTKLELT
notes: as for B1

The next lines start with the binder.

B2: 37H9C5G2 (antibody, V domains shown)
VH: QVQLQQSDAELVRPGASVKMSCKVSGYTFTDHTIHWMKQRPEQGLEWIGYIYPRDGSGTYNEKFKGKATLTADKSSSTAYMQLNSLTSEDSAVYFCARDGSSHYWYFDVWGTGTTVTVSS
VL: DIQMTQSPASLSASVGETVTITCRASEIIYNYLAWYQQKQGKSPQLLVYNAKTLAEGVPSRFSGSYSGTQFSLNINSLQSEDFGIYYCQHHHDTPLTFGAGTKLDLK
notes: as for B1
- OD450nm (human TPBG-hFc [1]): 1.55 OD450nm
- competition rate [2]: 6%
- competition rate [3]: 5%
- competition rate [4]: 96%
- OD450nm (human TPBG-hFc [5]): 0.11 OD450nm

B3: 99E12C7H1 (antibody, V domains shown)
VH: QIQLVQSGPELKKPGETVKISCKPSGYTFTAYGLSWVKQAPGQGFQWMGWINTYSGVPTYTDDFKGRFAFSLETSAGTASLQITNLKNEDTATYFCARSSIPPFEYWGPGTTLTVSS
VL: SFVMTQSPKFLLVSVGDRVTITCKASQSVSNDVAWYQQKPGQPPRVLIYFASNRYTGVPDRFTGSGYGTDFTFTISTVQAEDLALYFCQQDYSSPWTFGGGTKLEIK
notes: as for B1
- OD450nm (human TPBG-hFc [1]): 2.62 OD450nm
- competition rate [2]: 11%
- competition rate [3]: 0%
- competition rate [4]: 5%
- OD450nm (human TPBG-hFc [5]): 0.21 OD450nm

B4: 12B12C7C3 (antibody, V domains shown)
VH: DVQLVESGGGLVQPGGSRKLSCAASGFTFSNFGMHWVRQAPEKGLEWVAYISSGSTSFYYADTVKGRFTISRDNPKNTLFLQMTSLRSEDTAMYYCSRTNSLLRGFFDAWGAGTTVTVSS
VL: DIVLTQSPASLAVSLGQRATISCRASQSVSSSSYTYLHWYQQKPGQPPKLLIKSASNLESGVPARFSGTGSGTDFTLNIHPVEEEDTATYYCQHSWEIPLTFGAGTKLELK
notes: as for B1
- OD450nm (human TPBG-hFc [1]): 1.67 OD450nm
- competition rate [2]: 97%
- competition rate [3]: 4%
- competition rate [4]: 1%
- OD450nm (human TPBG-hFc [5]): 0.13 OD450nm

B5: 28D4E6A9 (antibody, V domains shown)
VH: DVQLVESGGGLVRPGGSLKLSCAASGFTFSNYVMSWARQSPEKRLEWVAEISTGGSHTYYSDTVTGRFTISRDNAKKALYLEMSSLRSEDTAIYYCIMFYYGSSYSMDYWGQGTSVTVSS
VL: DIQMTQSTSSLSASLGDRITISCRASQDIRNYLNWYQQKPDGTVKLLIYHTSRLHSGVPSRFSGSGSGTDYSLTISNLEQEDIATYFCQQGDTLPLTFGAGTRLELK
notes: as for B1
- OD450nm (human TPBG-hFc [1]): 1.97 OD450nm
- competition rate [2]: 24%
- competition rate [3]: 0%
- competition rate [4]: 0%
- OD450nm (human TPBG-hFc [5]): 0.14 OD450nm

B6: 39A11G5F2 (antibody, V domains shown)
VH: QVQLQQSGAELMKPGASMRLSCKATGYTFTGYWLEWIKRRPGHGLEWIGEILPGRGSTNYNEKFKGKATFTAETSSNTAYMQLTSLTTEDSAIYYCARGGRDFDNWGQGTTLTVSS
VL: B7 VL with T7S, R30N, Y32H, T85I, Y91F, V94L, W96Y, L104V, I106M
notes: as for B1
- OD450nm (human TPBG-hFc [1]): 1.36 OD450nm
- competition rate [2]: 9%
- competition rate [3]: 95%
- competition rate [4]: 0%
- OD450nm (human TPBG-hFc [5]): 0.11 OD450nm

B9: 5G4H10G5 (antibody, V domains shown)
VH: EVQLVESGGDLVQPGGSLKLFCAASGFTFSTYGLSWVRQTPDKRLELVATITNNDGSAYYPDSVKGRFTISRDKAKNTLFLQMTSLKSEDTAMYYCARETGFGSSYLFDYWGQGTLVTVSA
VL: NIVMTQTPKFLLVSAGDRVTITCKASQSVSNDVAWYQQKPGQSPKLLIYFATNRYTGVPNRFTGSGYGTEFTFTISSVQAEDLAVYFCQQDYSSPTFGGGTKLEIK
notes: as for B1
- OD450nm (human TPBG-hFc [1]): 1.76 OD450nm
- competition rate [2]: 9%
- competition rate [3]: 19%
- competition rate [4]: 5%
- OD450nm (human TPBG-hFc [5]): 0.1 OD450nm

B10: 106D5G3D10 (antibody, V domains shown)
VH: EVQLVESGGGLVKPGGSLKLSCAASGFTFSDYGMHWVRQAPEKGLEWVGYISSGTYVVYYADTVKGRFTISRDNAKNTLFLQMTSLRSEDTAIYYCSTYGSNPFDYWGQGTTLTVSS
VL: QLVLTQSPAIMSASPGEKVTITCSATSSVSSMHWFQQKPVTSPKLWIYSTSNLASGVPTRFSGSGSGTSYSLTISRMEAEDAATYYCQQRSGYPPIFTFGSGTKLEIK
notes: as for B1
- OD450nm (human TPBG-hFc [1]): 2.36 OD450nm
- competition rate [2]: 95%
- competition rate [3]: 0%
- competition rate [4]: 3%
- OD450nm (human TPBG-hFc [5]): 0.16 OD450nm

Reference: patent publication US20210198377A1 (XDCEXPLORER SHANGHAI, published 2021)
